These results are taken from IntAct's records for PubMed 18354483.

B1: RE1-silencing transcription factor (Homo sapiens), Q13127 (parent)
chain: MATQVMGQSSGGGGLFTSSGNIGMALPNDMYDLHDLSKAELAAPQLIMLANVALTGEVNGSCCDYLVGEERQMAELMPVGDNNFSDSEEGEGLEESADIKGEPHGLENMELRSLELSVVEPQPVFEASGAPDIYSSNKDLPPETPGAEDKGKSSKTKPFRCKPCQYEAESEEQFVHHIRVHSAKKFFVEESAEKQAKARESGSSTAEEGDFSKGPIRCDRCGYNTNRYDHYTAHLKHHTRAGDNERVYKCIICTYTTVSEYHWRKHLRNHFPRKVYTCGKCNYFSDRKNNYVQHVRTHTGERPYKCELCPYSSSQKTHLTRHMRTHSGEKPFKCDQCSYVASNQHEVTRHARQVHNGPKPLNCPHCDYKTADRSNFKKHVELHVNPRQFNCPVCDYAASKKCNLQYHFKSKHPTCPNKTMDVSKVKLKKTKKREADLPDNITNEKTEIEQTKIKGDVAGKKNEKSVKAEKRDVSKEKKPSNNVSVIQVTTRTRKSVTEVKEMDVHTGSNSEKFSKTKKSKRKLEVDSHSLHGPVNDEESSTKKKKKVESKSKNNSQEVPKGDSKVEENKKQNTCMKKSTKKKTLKNKSSKKSSKPPQKEPVEKGSAQMDPPQMGPAPTEAVQKGPVQVEPPPPMEHAQMEGAQIRPAPDEPVQMEVVQEGPAQKELLPPVEPAQMVGAQIVLAHMELPPPMETAQTEVAQMGPAPMEPAQMEVAQVESAPMQVVQKEPVQMELSPPMEVVQKEPVQIELSPPMEVVQKEPVKIELSPPIEVVQKEPVQMELSPPMGVVQKEPAQREPPPPREPPLHMEPISKKPPLRKDKKEKSNMQSERARKEQVLIEVGLVPVKDSWLLKESVSTEDLSPPSPPLPKENLREEASGDQKLLNTGEGNKEAPLQKVGAEEADESLPGLAANINESTHISSSGQNLNTPEGETLNGKHQTDSIVCEMKMDTDQNTRENLTGINSTVEEPVSPMLPPSAVEEREAVSKTALASPPATMAANESQEIDEDEGIHSHEGSDLSDNMSEGSDDSGLHGARPVPQESSRKNAKEALAVKAAKGDFVCIFCDRSFRKGKDYSKHLNRHLVNVYYLEEAAQGQE

Variants of B1 are the subject of this assay. To be noted: with fbw1a_human BTRC.
Consider S1030A, for which the “effect of a mutation on the interaction” value is recorded as “disrupting interaction strength”.
For S1027A the value was “disrupting interaction strength”; for S1024A, “disrupting interaction strength”.
